Source: article PMC9728385

Columns and labels:
TtCST Ctc1 F264A/Y268A = TtCST Ctc1 F264A/Y268A (Tetrahymena, UniProt A0PGB2;Q6JXI5;D2CVN7;D2CVN8 1-622;1-373;1-164;1-422, F264A;Y268A); experiment: EMSA
[1] = molecular target: TtCST Ctc1 R395E/Y445A/F473A (Tetrahymena, UniProt A0PGB2;Q6JXI5;D2CVN7;D2CVN8 1-622;1-373;1-164;1-422, R395E;Y445A;F473A); experiment: EMSA
Chain of TtCST Ctc1 R395E/Y445A/F473A (A0PGB2 whole entry R395E/Y445A/F473A, chain 1 of 4): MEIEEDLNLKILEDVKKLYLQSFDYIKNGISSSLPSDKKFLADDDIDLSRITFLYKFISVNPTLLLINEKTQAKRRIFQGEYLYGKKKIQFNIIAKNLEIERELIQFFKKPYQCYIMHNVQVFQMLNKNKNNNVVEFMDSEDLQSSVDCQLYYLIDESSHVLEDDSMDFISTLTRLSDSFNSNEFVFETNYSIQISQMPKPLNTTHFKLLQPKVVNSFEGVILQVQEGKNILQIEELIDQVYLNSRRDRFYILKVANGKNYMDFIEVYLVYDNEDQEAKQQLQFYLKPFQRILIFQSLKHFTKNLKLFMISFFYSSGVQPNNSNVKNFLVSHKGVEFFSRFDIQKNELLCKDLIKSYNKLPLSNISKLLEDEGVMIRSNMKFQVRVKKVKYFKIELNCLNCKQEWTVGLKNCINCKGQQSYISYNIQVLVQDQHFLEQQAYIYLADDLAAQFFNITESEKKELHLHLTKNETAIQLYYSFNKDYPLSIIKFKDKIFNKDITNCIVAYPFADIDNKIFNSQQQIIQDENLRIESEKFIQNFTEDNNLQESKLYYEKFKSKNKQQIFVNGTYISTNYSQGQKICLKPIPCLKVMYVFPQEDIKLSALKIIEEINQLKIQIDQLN
Chain of TtCST Ctc1 R395E/Y445A/F473A (Q6JXI5 whole entry, chain 2 of 4): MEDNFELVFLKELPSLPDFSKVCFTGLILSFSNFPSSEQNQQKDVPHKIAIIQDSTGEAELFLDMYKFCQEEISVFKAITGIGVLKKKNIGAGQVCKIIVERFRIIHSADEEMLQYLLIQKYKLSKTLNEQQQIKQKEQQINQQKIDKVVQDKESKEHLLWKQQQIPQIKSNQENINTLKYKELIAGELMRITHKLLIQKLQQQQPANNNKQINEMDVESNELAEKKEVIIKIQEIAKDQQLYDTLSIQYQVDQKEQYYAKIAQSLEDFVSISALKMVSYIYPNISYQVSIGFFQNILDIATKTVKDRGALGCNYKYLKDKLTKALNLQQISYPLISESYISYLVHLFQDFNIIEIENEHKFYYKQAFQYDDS
Chain of TtCST Ctc1 R395E/Y445A/F473A (D2CVN7 whole entry, chain 3 of 4): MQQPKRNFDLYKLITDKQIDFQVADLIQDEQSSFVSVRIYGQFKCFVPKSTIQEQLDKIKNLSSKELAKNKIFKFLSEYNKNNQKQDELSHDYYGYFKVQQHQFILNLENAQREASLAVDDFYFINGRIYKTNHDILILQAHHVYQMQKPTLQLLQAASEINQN
Chain of TtCST Ctc1 R395E/Y445A/F473A (D2CVN8 whole entry, chain 4 of 4): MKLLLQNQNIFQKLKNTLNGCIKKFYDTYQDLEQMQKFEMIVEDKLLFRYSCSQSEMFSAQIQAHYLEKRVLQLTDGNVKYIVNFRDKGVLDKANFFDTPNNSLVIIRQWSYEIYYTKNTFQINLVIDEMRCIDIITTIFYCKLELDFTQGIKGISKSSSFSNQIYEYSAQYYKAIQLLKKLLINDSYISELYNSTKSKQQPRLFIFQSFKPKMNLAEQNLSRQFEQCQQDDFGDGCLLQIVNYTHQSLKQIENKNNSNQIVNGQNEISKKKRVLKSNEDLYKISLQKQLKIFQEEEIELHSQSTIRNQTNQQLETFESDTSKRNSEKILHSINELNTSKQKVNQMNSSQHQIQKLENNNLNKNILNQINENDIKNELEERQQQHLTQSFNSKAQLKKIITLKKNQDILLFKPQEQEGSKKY

Chain of TtCST Ctc1 F264A/Y268A (A0PGB2 whole entry F264A/Y268A, chain 1 of 4): as the sequence (A0PGB2 whole entry R395E/Y445A/F473A, chain 1 of 4) above, with F264A, Y268A, E395R, A445Y, A473F counted along it
Chain of TtCST Ctc1 F264A/Y268A (Q6JXI5 whole entry, chain 2 of 4): as the sequence (Q6JXI5 whole entry, chain 2 of 4) above
Chain of TtCST Ctc1 F264A/Y268A (D2CVN7 whole entry, chain 3 of 4): as the sequence (D2CVN7 whole entry, chain 3 of 4) above
Chain of TtCST Ctc1 F264A/Y268A (D2CVN8 whole entry, chain 4 of 4): as the sequence (D2CVN8 whole entry, chain 4 of 4) above

Binder: GTTGGGGTTGGGGTTGGGGTTGGGGTTGGG (ssDNA) [d(GTTGGG)5]
- binding signal (TtCST Ctc1 F264A/Y268A): 1.2 fold weaker Kd than WT
- Kd [1]: 520 nM
